According to patent US20210196823A1, “Methods of Treating Metabolic Disease” (Pfizer Inc., priority 2018, published 2021):
Values belong to the molecule of their own block, whether it stands above or below them.

Tests used:
[1] = tested on: biotinylated monoFC-muErfe; test: FRET assay: BMPs disrupting binding of cryptate-labelled anti-ERFE antibody 15.1 to biotinylated monoFC-muErfe; parameters: species or system murine; conditions: competing antigen 250 nM to 0.39 nM, Ab 15.1 15 nM, 3 hours room temperature
Sequence of biotinylated monoFC-muErfe (Q6PGN1 25-340): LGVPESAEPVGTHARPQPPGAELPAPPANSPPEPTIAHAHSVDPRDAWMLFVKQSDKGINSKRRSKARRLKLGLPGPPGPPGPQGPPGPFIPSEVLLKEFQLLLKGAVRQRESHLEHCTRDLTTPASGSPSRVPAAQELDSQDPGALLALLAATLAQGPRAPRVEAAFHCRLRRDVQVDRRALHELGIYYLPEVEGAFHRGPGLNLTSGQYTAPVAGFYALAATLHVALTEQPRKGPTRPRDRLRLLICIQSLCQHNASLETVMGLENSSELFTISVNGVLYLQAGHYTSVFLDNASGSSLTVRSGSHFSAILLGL
Description: (a) Investigation of the ability of BMPs to disrupt binding of cryptate-labelled anti-ERFE antibody to biotinylated murine ERFE: FRET assay was used to determine the ability of BMPs to disrupt binding between ERFE and a neutralising anti-ERFE antibody (Ab 15.1). The assay setup comprised streptavidin XL665 (cisbio assays) at a constant concentration of 1:1000 to be 50 ng per well, biotinylated monoFC-muErfe (9 μM) i.e. a monomeric FC murine ERFE fusion, cryptate labelled anti-ERFE antibody (Ab 15.1) at 15 nM. Each reaction well contained a total volume of 20 μl comprising: 5 μl streptavidin XL665, 5 μl Biotinylated monoFC-muErfe, 5 μl cryptate labelled anti-ERFE antibody 15.1, 5 μl competing antigen as a titration from 250 nM to 0.39 nM, all antigens at each concentration were assayed in duplicate. Reactions were left for 3 hours at room temperature and then […] at 665 nm and […] was read on the Envision. […] The assay was also conducted using a non-neutralising anti-ERFE antibody as a control.

[2] = tested on: HAMP-nanoluciferase fusion in HepG2 hepatoma cells; test: hepcidin transcriptional fusion reporter assay (nano-luc / nano-luciferase assay); type: cell-based; conditions: for hepcidin expression (hepcidin-nanoluciferase fusion expression): NanoLuc cells, serially diluted BMP, 24 h
Description: The was measured in-vitro using as follows: A hepcidin transcriptional fusion reporter assay (nano-luc or nano-luciferase assay) was developed to assess the effect of BMPs on hepcidin production in-vitro. A nanoluciferase reporter was inserted at the end of the coding sequence of the endogenous HAMP gene, in HepG2 hepatoma cells, creating a HAMP-nanoluciferase fusion. CRISPR-Cas9 was used to edit the cells with this knock-in reporter construct. A bovine Growth Hormone poly A was included after the nanoLuc to ensure proper mRNA processing. A Puromycin-TK expression cassette was also included 3′ of the nanoluc reporter to enrich for properly targeted clones. […] Approximately 20,000 cells (cells split with trypsin/EDTA) were suspended in 200 uL of complete media (DMEM+10% serum+Na pyruvate) and were distributed into each well of 96-well plates and incubated for 24 hours at 37 C. Media was then aspirated and the cells treated in 100 uL complete media for 24 h at 37 C in the presence of the selected BMP which was serial diluted (in duplicates), controls of fresh media alone were used for a baseline signal (in duplicate). Following the incubation 90 uL of supernatant was transferred to a white wall 96 well plate and equilibrated at RT, 90 uL of RT NanoLuc reagent was added/well (for 1 plate, 10 mL diluting reagent+200 uL NanoLuc substrate—from Nano-Glo Luciferase Assay System, Promega, ref cat #N1150) and mixed 2-3 min at room temperature. Plates were read on Envision with Lum700 program following the manufacturer's instructions.

[3] = tested on: SMAD1/5/8 phosphorylation in Huh7 cells; test: Western blot of SMAD1/5/8 phosphorylation in Huh7 cells; type: cell-based; conditions: Huh7, BMP6 stimulation, 30 min
Description: (d) ERFE effects on BMP/SMAD signalling measured by SMAD 1/5/8 phosphorylation: To confirm the suppression of BMP/SMAD signalling, we analysed phosphorylation of SMAD1/5/8, required to transduce the signal leading to HAMP upregulation. Analysis was carried out by Western blot according to the following methodology: Cells were lysed at 4° C. using RIPA buffer (Thermo Scientific) containing protease/phosphatase inhibitor (Cell Signalling). Lysates were denatured at 95° C. and separated on a 10% SDS polyacrylamide gel (Bio-Rad), following the manufacturer's instruction. Protein sizes were estimated by using the Novex Sharp Pre-Stained Protein Ladder (life technologies). Protein was transferred to a nitrocellulose membrane, then blocked with milk/TBS for 1 h. Antibodies used were anti-P-SMAD 1/5 (S463s/465)/9(S465/467) (Cell signalling 13820S 1:500), anti-Smad1 (Cell Signalling 6944S 1:500), anti-β-actin-peroxidase (Sigma A3854 1:10 000), and Anti-rabbit IgG HRP conjugated (RnD systems HAP008 1:5000). […] In this case Huh7 cells were treated with mouse ERFE (10 μg/ml) or BMP6 and LDN, a small molecule inhibitor of BMPs, (100 nM), alone or in combination, for 30 min and pSMAD/SMAD ratios values were calculated by densitometry. Erythroferrone caused a decrease in SMAD phosphorylation relative to non-treated cells (FIG. 3D).

[4] = target: T1, BMP2 (UniProt P12643 283-396); test: SPR (Biacore)
T1 chain: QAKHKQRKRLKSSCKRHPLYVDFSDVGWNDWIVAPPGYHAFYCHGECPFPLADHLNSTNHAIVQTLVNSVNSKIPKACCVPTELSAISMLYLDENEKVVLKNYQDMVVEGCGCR

[5] = target: T2, BMP4 (UniProt P12644 293-408); test: SPR (Biacore)
T2 chain: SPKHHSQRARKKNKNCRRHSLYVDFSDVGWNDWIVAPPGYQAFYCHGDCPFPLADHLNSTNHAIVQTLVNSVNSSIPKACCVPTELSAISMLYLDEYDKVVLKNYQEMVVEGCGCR

[6] = target: T3, BMP6 (UniProt P22004 382-513); test: SPR (Biacore)
T3 chain: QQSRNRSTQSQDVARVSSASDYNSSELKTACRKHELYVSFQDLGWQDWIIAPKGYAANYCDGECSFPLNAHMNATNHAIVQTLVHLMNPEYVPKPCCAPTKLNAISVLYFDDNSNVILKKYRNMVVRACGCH

[7] = tested on: Huh7 cells; test: Gene expression microarray of Huh7 cells treated with ERFE; type: cell-based; conditions: Huh7, ERFE 10 μg/ml, 24 h
Description: (b) Gene expression microarray: Microarray analysis of Huh7 cells treated with mouse or human erythroferrone was carried out to test the activity of erythroferrone on the BMP/SMAD signalling pathway. Generally cell treatments were carried out according to the following protocol: Huh7 and HepG2 were cultured in Dulbecco's Modified Eagle's Medium—High Glucose (Sigma), supplemented with 10% Fetal Bovine Serum (Sigma), 1% Penicillin-Streptomycin (Sigma) and 1% L-Glutamine (Sigma), unless otherwise indicated. Cells were plated 24 h before treatments in 24-well (gene expression analysis) or 12-well (protein analysis) cell culture plates. At the time of treatment, cells were washed with PBS and fresh media was added.
For the purposes of gene expression microarray analysis RNA was isolated from the Huh7 cells using RNeasy Plus kit (Qiagen), this was followed by RNA quantification and quality assessment using a 2100 Bioanalyzer (Agilent). RNA was converted into biotin labelled cRNA for hybridization and gene expression analysed using the Human HT12v4.0 Expression Beadchip (Illumina) and the Illuminas's iScan Scanner. Raw data was normalised using the lumi package (Bioconductor) and compared using LIMMA (Bioconductor). Statistical significance was set at p<0.05.

Molecule: BMP4: bone morphogenetic protein 4 (R&D systems)
- competition with cryptate labelled anti-ERFE antibody for binding to biotinylated monoFC-muErfe [1]: did not compete effectively

B1: BMP9: bone morphogenetic protein 9 (R&D systems) (protein)
chain: SAGAGSHCQKTSLRVNFEDIGWDSWIIAPKEYEAYECKGGCFFPLADDVTPTKHAIVQTLVHLKFPTKVGKACCVPTKLSPISVLYKDDMGVPTLKYHYEGMSVAECGCR
- hepcidin expression (hepcidin-nanoluciferase fusion expression) [2]: dose-dependent increase

B6: monoFC-huErfe: monomeric Fc fusion of human ERFE; FIG. 3L legend names the A4 mutant (protein)
chain: AAGLGSPEPGAPSRSRARREPPPGNELPRGPGESRAGPAARPPEPTAERAHSVDPRDAWMLFVRQSDKGVNGKKRSRGKAKKLKFGLPGPPGPPGPQGPPGPIIPPEALLKEFQLLLKGAVRQRERAEPEPCTCGPAGPVAASLAPVSATAGEDDDDVVGDVLALLAAPLAPGPRAPRVEAAFLCRLRRDALVERRALHELGVYYLPDAEGAFRRGPGLNLTSGQYRAPVAGFYALAATLHVALGEPPRRGPPRPRDHLRLLICIQSRCQRNASLEAIMGLESSSELFTISVNGVLYLQMGQWTSVFLDNASGCSLTVRSGSHFSAVLLGV
modifications: left off: a dimerising Fc or GST
- suppression of hepcidin production (NanoLuc) ([2]; two fold dilutions from 600 nM, 24 hours): dose dependent

B7: human ERFE: recombinant human erythroferrone, SEQ ID NO: 1 (protein, listed as Homo sapiens)
chain: MAPARRPAGARLLLVYAGLLAAAAAGLGSPEPGAPSRSRARREPPPGNELPRGPGESRAGPAARPPEPTAERAHSVDPRDAWMLFVRQSDKGVNGKKRSRGKAKKLKFGLPGPPGPPGPQGPPGPIIPPEALLKEFQLLLKGAVRQRERAEPEPCTCGPAGPVAASLAPVSATAGEDDDDVVGDVLALLAAPLAPGPRAPRVEAAFLCRLRRDALVERRALHELGVYYLPDAEGAFRRGPGLNLTSGQYRAPVAGFYALAATLHVALGEPPRRGPPRPRDHLRLLICIQSRCQRNASLEAIMGLESSSELFTISVNGVLYLQMGQWTSVFLDNASGCSLTVRSGSHFSAVLLGV
- target genes of the JAK/STAT3 pathway [7]: No changes
- number of suppressed genes ([7]; 5 are BMP/SMAD targets ID1, ID2, ID3, SMAD6, HAMP): 12

Now from value to molecule, other results behind:

- competition with cryptate labelled anti-ERFE antibody for binding to biotinylated monoFC-muErfe [1]: measurable competition
B2: BMP6: bone morphogenetic protein 6 (R&D systems) (protein)
chain: QQSRNRSTQSQDVARVSSASDYNSSELKTACRKHELYVSFQDLGWQDWIIAPKGYAANYCDGECSFPLNAHMNATNHAIVQTLVHLMNPEYVPKPCCAPTKLNAISVLYFDDNSNVILKKYRNMVVRACGCH
- hepcidin expression (hepcidin-nanoluciferase fusion expression) [2]: dose-dependent increase
- SMAD phosphorylation [3]: increase

- competition with cryptate labelled anti-ERFE antibody for binding to biotinylated monoFC-muErfe [1]: measurable competition
B3: BMP7: bone morphogenetic protein 7 (R&D systems) (protein)
chain: STGSKQRSQNRSKTPKNQEALRMANVAENSSSDQRQACKKHELYVSFRDLGWQDWIIAPEGYAAYYCEGECAFPLNSYMNATNHAIVQTLVHFINPETVPKPCCAPTQLNAISVLYFDDSSNVILKKYRNMVVRACGCH

- competition with cryptate labelled anti-ERFE antibody for binding to biotinylated monoFC-muErfe [1]: measurable competition
B4: BMP5: bone morphogenetic protein 5 (R&D systems) (protein)
chain: AANKRKNQNRNKSSSHQDSSRMSSVGDYNTSEQKQACKKHELYVSFRDLGWQDWIIAPEGYAAFYCDGECSFPLNAHMNATNHAIVQTLVHLMFPDHVPKPCCAPTKLNAISVLYFDDSSNVILKKYRNMVVRSCGCH

- Kd [4]: 16.1 nM
- Kd [5]: 41.1 nM
- Kd [6]: 1.17 nM
B5: ERFE A4-biotin (ligand)
chain: AAGLGSPEPGAPSRSAAAAEPPPGNELPRGPGESRAGPAARPPEPTAERAHSVDPRDAWMLFVRQSDKGVNGKKRSRGKAKKLKFGLPGPPGPPGPQGPPGPIIPPEALLKEFQLLLKGAVRQRERAEPEPCTCGPAGPVAASLAPVSATAGEDDDDVVGDVLALLAAPLAPGPRAPRVEAAFLCRLRRDALVERRALHELGVYYLPDAEGAFRRGPGLNLTSGQYRAPVAGFYALAATLHVALGEPPRRGPPRPRDHLRLLICIQSRCQRNASLEAIMGLESSSELFTISVNGVLYLQMGQWTSVFLDNASGCSLTVRSGSHFSAVLLGV
modifications: biotin (site not stated)
